Measured values as given in PMC10156769, “The novel anti-cancer fluoropyrimidine NUC-3373 is a potent inhibitor of thymidylate synthase and an effective DNA-damaging agent” (Cancer Chemotherapy and Pharmacology, 2023).

Experiments:
purified protein = substrate: O=c1ccn([C@H]2C[C@H](O)[C@@H](COP(=O)(O)OP(=O)(O)OP(=O)(O)O)O2)c(=O)[nH]1; assay: purified protein; settings: Mg2+ ([…] MgCl2 in the assay buffer)
[1] = substrate: O=c1[nH]c(=O)n([C@H]2C[C@H](O)[C@@H](COP(=O)(O)OP(=O)(O)OP(=O)(O)O)O2)cc1F; assay: EnzChek pyrophosphate coupled assay, Michaelis-Menten substrate kinetics (KM); assay type: biochemical, Homo sapiens; settings: Mg2+ ([…] MgCl2 in the assay buffer)

B1: dUTPase (Deoxyuridine triphosphate nucleotidohydrolase) (Homo sapiens) (protein)
chain: ASTVGAAGWKGELPKAGGSPAPGPETPAISPSKRARPAEVGGMQLRFARLSEHATAPTRGSARAAGYDLYSAYDYTIPPMEKAVVKTDIQIALPSGCYGRVAPRSGLAAKHFIDVGAGVIDEDYRGNVGVVLFNFGKEKFEVKKGDRIAQLICERIFYPEIEEVQALDDTERGSGGFGSTGKN
**Q.** For B1, which Km (purified protein) is on record?
**A.** The Km was 3.2 ± 1.8 µM.

**Q.** What about the Km [1] of the same protein?
**A.** Its Km is 19.1 ± 6.7 µM.
